One substance from US20160186238A1 can be followed below.

This test concerns the target trypsin (bovine) (UniProt P00760). Kind of test: trypsin activity inhibition, fluorogenic substrate Z-Arg-AMC, fit of activity vs inhibitor concentration.

pKi: −log10 of the molar value.

trypsin (bovine), sequence (P00760 24-246): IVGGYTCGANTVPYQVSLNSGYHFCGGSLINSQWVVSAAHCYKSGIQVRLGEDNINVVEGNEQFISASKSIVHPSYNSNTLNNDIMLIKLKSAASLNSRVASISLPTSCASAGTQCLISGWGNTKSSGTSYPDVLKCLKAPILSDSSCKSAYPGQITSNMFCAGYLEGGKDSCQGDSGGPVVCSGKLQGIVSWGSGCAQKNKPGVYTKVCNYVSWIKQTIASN

In turn, antipain (peptide) had a pKi of 7.40.

For orientation: pKi means −log10 of the Ki, conventionally taken in molar units. Low values mean a high Ki, high ones a low Ki.
